According to the DeepSol protein solubility set:

Test: soluble on expression in E. coli; label from the status in PepcDB or PDB records

Sequence: MGFLNKLLSSEGPRKPKVKFDLQKCKVLLKGGENRIRLQKSKLAVCNLLASPVPALKNLFNKNSVKLQQREVAVLLEGGKDELARIRAEQMVRDELLIESYEIVEVLCETLLTRHNLLALNFHATKENPYPPLPPEIAEAVCSIAFASCRLDASELQTLTEMLASRFGPELIDSACAGQPSQRVWGVNSLVNPRLYSKLLYSVPDGNVVLQKLQDIADMFQLEWKAPAEFEELKDHSVLDSTASTPVFSGNAQRARYLPEASSFSDEKIGDDVFCTNESEQTEEGRDPSDDLSARLEALKRNR
- soluble on expression in E. coli: not soluble

Sequence: MKKLLLSILFVGGGLISLSNNFTGPRYRVDISTGFIDDRRFALTSGYKFFSGSVSVLPEWELKFNKKFDISFGPKVSLNFENFIGSMDATTINPSIILGGEIDFNYKVIEDVKIYAGMEVGTGIGFQAFVSSSHNHFQGPELKTESKISLGVKVKDKFNLAFYTGDIKGVIGVEAGYTF
- soluble on expression in E. coli: not soluble

Sequence: MAHHHHHHMSALKDKTGRFVVLDKNASNYESLVDQEMNNVYERVMKLDPNQVEFLQAFHEILYSLKPLFMEEPKYLPIIETLSEPERAIQFRVCWLDDNGVQRKNRCFRVQYNSALGPYKGGLRFHPSVNLSIVKFLGFEQIFKNSLTGLSMGGGKGGSDFDPKGKSDNEILKFCQAFMNELYRHIGPCTDVPAGDIGVGGREIGYLYGQYKKIVNSFNGTLTGKNVKWGGSNLRVEATGYGLVYFVLEVLKSLNIPVEKQTAVVSGSGNVALYCVQKLLHLNVKVLTLSDSNGYVYEPNGFTHENLEFLIDLKEEKKGRIKEYLNHSSTAKYFPNEKPWGVPCTLAFPCATQNEINLEDAKLLQKNGCILVGEGANMPSTVDAINLFKSNNIIYCPSKAANAGGVAISGLEMSQNFQFSHWTRETVDEKLKEIMRNIFIACSENALKYTKNKYDLQAGANIAGFLKVAESYIEQGCF
- soluble on expression in E. coli: soluble

Sequence: MGSDKIHHHHHHMPEAAFTHERRCSSLCAFVSSSQSPTTNAETIREARSSRCDKTSMTPSFKELKSRFGLDEINTTDAYIIEALIIMAAISLMMSRVIVDELRSLEARQREVEAAADADESASRLPRRRCSLAVERHAHLIQLYLMVELGYELPDLDELLLWASRNPNPHRDRLREQVERGEFGFGRH
- soluble on expression in E. coli: not soluble

Sequence: MGSDKIHHHHHHMAFAQLQIVSSLADAYSKDGADALILIGNFDSIDDSALAETIQQAQITDQRVGKQPLLLKADGVPGQRLVAAPTGPLNRDFDDVRQVFDAAHAAAKVAQDAGARHPVIALNNVNVNDERYQQAFLAAYLGFCQALYQPLEAREAHGEEAIEPTQNVILVGELDVEWAMAVEAGKRVARDLAGTEPERMAPPKFAEYCRQAFAHTSVKVTVIDDYQQLQHEYPLLAAVGRSSMAVERHRPCVIRLEYHGNNPERTVMFAGKGIVYDTGGADLKTGGHMAGMSRDKGGAAGVAGFLKTVSELQPEHLNVVAEIGAVRNSIGSDAFVADEIITGHSGKRVRIGNTDAEGRLIMADLLSHLREEAAKSDGEHELYTVATLTGHAALSKGPYSALVPNGHARRQNLAQALFNAGETYGDPTEISWSRREDFDFVKGRTLCDDLLSSNNGPSAATPRGHQFPMAFLTGVSGLDNHGIDSEHPISYIHIDIAGSGVEGGDWQHGKPTAAPVTCLAGHYLKK
- soluble on expression in E. coli: not soluble

Sequence: MTDILIDNTATETVRTLIRAFPLVPVSQPPEQGSYLLAEHDTVSLRLVGEKSSVIVDFASGAAQYRRTKGGGELIAKAVNHTAHPTVWDATAGLGRDSFVLASLGLAVTAFEQHPAVACLLSDGIRRALLNPETQNTAAHINLHFGNAAEQMPALVQTQGKPDIVYLDPMYPERRKSAAVKKEMTYFHRLVGEAQDEAALLHTARQTAKKRVVVKRPRLGEHLAGQDPAYQYTGKSTRFDVYLPYGTDKGLEHHHHHH
- soluble on expression in E. coli: soluble

Sequence: MPEITRRRALTAAAAVAATASAAVTLAAPAASAAGHHEPAAPESFDEVYKGRRIQGRPARGAAHHHEHGGGYEVFVDGVQLHVMRNADGSWISVVSHFDPVPTPRAAARAAVDELQGAPLLPFPANLEHHHHHH
- soluble on expression in E. coli: soluble

Sequence: MAHHHHHHMPPPNTLQRGSEWVAQCMRDIKAAKLQQTVRPYSNGTPAGEALPVRTIVATSRIHRGEHLGTVKRDSIMTGERASQLLRRACRGGPSQTDVTAATGLQPLAAQRFDDLVSRISSLPSALSVPPHLLLSRDALLVTVALYLTRSPLNAGVLPAESPLRAWADALPRRPPPMGALLRRSFLSHDDVEPLPRRLRLGQRTKEVAPGEDVAAASTELMVQAVEQGELELADLRRPEMETALTPTVLTNYFKGRMSALTQRQRQSQRARGGVAEAEEGALHLFMTWERQLQTHFVDALLPVLLLPSCGSCASNLEAVQDSAAWLGEESALRWAHFMTRSRAVNLNWRHPGPPQLSIVPLVDMLNHTSRANANVVYQREDSGDVCVTASRTIEAGEELVLRYNHIGQRGCLFGDLPRPSKPTAEHERGRLSGKAAAVADEVHRIEKRQYWELYACDEDEEAVQHTGHTPSTSFTASTRCGTFDPAPPAAVGQQEMEQEVQWLWRFGFLRSNEEKNREAALLWSRGLRSRIAHLTDVRRKGRPGEFVLGVPEGLQHLREQREQLERNRYNNKKVFPPQQL
- soluble on expression in E. coli: not soluble

Sequence: MRNICFVACMLFCLASASGKTVKNHPFVSIADSILDNVLNLYQTEDGLLTETYPVNPDQKITYLAGGAQQNGTLKASFLWPYSGMMSGCVAMYQATGDKKYKTILEKRILPGLEQYWDGERLPACYQSYPVKYGQHGRYYDDNIWIALDYCDYYRLTKKADYLKKAIALYEYIYSGWSDELGGGIFWCEQQKEAKHTCSNAPSTVLGVKLYRLTKDKKYLNKAKETYAWTRKHLCDPDDFLYWDNINLKGKVSKDKYAYNSGQMIQAGVLLYEETGDKDYLRDAQKTAAGTDAFFRSKADKKDPSVKVHKDMSWFNVILFRGFKALEKIDHNPTYVRAMAENALHAWRNYRDANGLLGRDWSGHNEEPYKWLLDNACLIELFAEIEKLEHHHHHH
- soluble on expression in E. coli: not soluble

Sequence: MHKPLRIATVTATCAVAGAVLYTTGAASAGQSTANSTHEPYNIGVLAKDIDAYYGTTLDADGVYQASPDSPYAADLARVDAAAKKQIDRAARTAHHKHTRPAVVFDIDDTLLLSLDYEKKNNYGYDGATWAAYVDRADRPAVPGSPELARYADKKGVEVFYNSGLGEAQRAAAVENLKKAGADVNLDASHMFLKDKANPPSYLAHCATPGSWTCTTVQYKAGTRRHIERDLGYDVVANFGDQYSDLQGGYADRTYKLPNPTYFVE
- soluble on expression in E. coli: soluble

Sequence: MGAAMGPALAVDAAQEAPTADNSPAVEAPQTPEEGEQSAQTSQDNPRYESQIVRAGHSAEAEQVGDVSEDTIFEYSEFDIPEGWFVSVDEDSGKVTVSTPPDAQDGDNYTVKVKAVDLDGNVTWSEVTFTVGDPETDNPEIEPLDADAPEVELPAAE
- soluble on expression in E. coli: not soluble

Sequence: MLYVVGIGPGNEEYFTKEAENALNSVDLIVCYTGYKKYIERFDTEIYVSGMTKEVERVEYALKEAENKNVALVSNGDATIYGLASLAYELNEKNLHNVTINVVSGL
- soluble on expression in E. coli: not soluble

Sequence: MSLSASTHDLVIIGAGPAGMSAALTAASLGMKTLLLDEQLRPGGQIYRNITAVPPSVAALLGPDYRHGEGLAARLGRSGVELRFGAMVWDVARDLTVTAQQDGQSFQVRAPQLIAATGAMERASPIPGWTLPGVLNAGAAQIALKSASAVPSGRVVLAGSGPLLLLVACQLLDAGVSLAGIVETSPSTNRWRALRHLPAALGAHAYLAKGLRMLWRLRRAGVPMFAAATSLRVEGGERVQALAFKADRIDHLLHADVVLLHHGVVPNTQLSRLLRVDHDWDLVQLAWRPQVNAWGETSLAGFRVAGDGAAIAGAQAAEPNGTLAALGAAQALGRLDVTECEQRAASARGTLKRQLRIRPFLDALYRPPEWLSDPTDETVVCRCEEVTAGRVREMARLGCQGPNQTKFFSRCGMGPCQGRVCGLTVTQILSTELGRPPSEVGAYHIRSPLKPVPLASIAALADTATIENSEPMETTEGHHHHHH
- soluble on expression in E. coli: not soluble

Sequence: SLRFYAACLASYNNGVLHGRWIDASSDTDEMQEEVSAMLRASRFPNVMVKCPNCEGRLELCTVCDGGSREVPSAEEWAIHDYDGLPSSLGEYPGLDKIAAFVELCEEHDMTGEDMAAIVSHFGSVEYAKEELGNNFVGVHESFRAYAEELADEMLSAHDIKADHPLSQYFDYEAYARDLRHSASAVELDEGVAVFCV
- soluble on expression in E. coli: soluble

Sequence: GMEQQHPTIHTLKIETEFFKAVKERRKTFEIRKNDRNFQVGDILILEEYMNGMYLDDECEAEVIYITDYAQREGYVVLGIELH
- soluble on expression in E. coli: soluble

Sequence: KFGASQDVVKWQEVTSNLPELSKKLMSSSSEPLSDDEMADLTLALRTRLHYQPEDSTGWLLLGRIALANRDVTTAIDSMKKSYALEPKDPDVMLGYAQALMLSQDEMDQATARSLLGKLMQQDYVDLRVFSLLAFDAFERKDYPAAIKYWGIMQQMIGPDDSRYESLSRSIDHARKQMGEVVSPDKSVAVTINVAPEAQLDPNAVLIVSIHRADGSPMPVAAARYPLGSFPRTVVLDDGNAMMQGQKLSSLEKLIVRVRADSDGNVATRDQDWHGESDVVEFGQPVAVTIDKQYQ
- soluble on expression in E. coli: not soluble

Sequence: MAHHHHHHMLHEVNVGTSDIVRGGHGGDEAATPQQPPALSVVEEHIQRIRLELCGQRHPPSGYASAIAIPSTAAGLDRVAVLVDLLDQVRYWAIEEAFTFKDEPSRLAETEAPEAVVACLCSQRPQLVAQALRVVQPMLRHRQTAYETRRVMVDVWAYREQVNSMVPLPEGLDPLLAMLAEFLEQHKGVLPVLVEALSTATAALVQDGTACVGSDNGNDDNLDGGVSLRRRVAPLVVALHETTLVYQMESAMRRHPDAVPLQVEGVSFCAALVDLPWPFEAEVDSEEGTPTSLADILAHSDGVLDVLHGALRRHRQNLCIARGVLHVWRVCAQHPANRVPLLQHGAYAGALQQLRGVLPYAVGVWREIAETVGYFIPLLDALQRRSLALTLRELLLRRPQLEMLELILALLLSLLMVV
- soluble on expression in E. coli: not soluble

Sequence: MNLLPYQFVGEVVRGFGRGGKELGCPTANMDGTVVNGLPEGLPVGVYFGTAKLDGKSYKMAMSIGWNPQYQNEKKTVELHLIDYSGSDFYGKTLSAVIIGFIREMKSFESLDELKSAIAMDIKVARRGSVEQGKL
- soluble on expression in E. coli: not soluble

Sequence: MGSDKIHHHHHHMVKWYKTYLEVYGKSFDEISDDSIRKVKRQLKERQNDSPLVSVVLIAHNEERHLISCIWSLSENHCHFPIEIIAVNNNSTDKTEEILKSLGVTYYNETKKGPGYARQCGLDHAKGKYHICIDADTLYPPHYIETHVKYLMNPKVACTFSLWSFMVDERHSRFGLWCYEGLRDIYLRLQAIQRPELCVRGMAFSFNTEIGRRFGFRTDIIRGEDGSLALAMKPYGKIVFITSRKARVLTSNGTLNSEGSLIDNIWIRVIKALKEITGLFIKKTAYKDKDSNLIK
- soluble on expression in E. coli: not soluble

Sequence: MGSDKIHHHHHHMLTSSWIKQLPLTAITQVTPVGGGDVNQAYRIDTATKPYFLLVQPGYPADFYAGEIAGLKAFDEAQILAPRVIANGQIEGDGFLLLSFLTSGNGSQRDLGRLVAHLHQHHEPNGRFGFDYPYAGTSVSFTNTWTDSWADLFIHQRLDKLAAHLLKKELWQADDEATFQQVRTIISKTLAHHHSDASLLHGDLWGGNYMFTADGQPALIDPAAVYGDRELDIGVTTVFGGFTQDFYTGYQEVYPLDAGYHFRLDFYRLYYLMVHLDKFGMGYAGSVAAVMNQILDHGLTE
- soluble on expression in E. coli: not soluble

Sequence: MMEADKKFLELVKKWGVLSVVSSWQDRLLRDICALIVECVLFDKTCAVAPAYFTLIAMNSSKFSTQQWNIFSNFLATASTQSLRHVRLLNSFFVRSSTDENGDIGDVTSYNPGKLTFRQLIAAVQVLSSQKEKSLGQKEEEDLSSGVALIMLSHGADTHRLEVHSIISSLFTHCLLLQLIASLLLSEDSNPKLKATLIGSTSPIDPKLDDSIYPILYNILNESSETSLDFDSRPAVGSLLSRMLGIKHANLLKALVSSNLTKTMSLLRRFEKTKNTELLPEIAKAVKSRSVDLKSVEFEVSTRRSAFVTREHAITQYHLVPVDNGEENAYKLVSQEFVDGALSEYDKHRDRLKPFIPDRRNPFQHAIDDSDTVSIDSKTEDFDEIRLAAYRDICLIPLRYVSDNLLREHLPDFLPPVTQIVLSSPDLAVRQLAVDFMSRLA
- soluble on expression in E. coli: not soluble
